Target: the molecule itself
Assay: SEC-MALS

B1: N-terminal A20 protein bearing the OTU domain (residues 1-370), wild type (domain or fragment, UniProt P21580 1-370, looked up)
chain: MAEQVLPQALYLSNMRKAVKIRERTPEDIFKPTNGIIHHFKTMHRYTLEMFRTCQFCPQFREIIHKALIDRNIQATLESQKKLNWCREVRKLVALKTNGDGNCLMHATSQYMWGVQDTDLVLRKALFSTLKETDTRNFKFRWQLESLKSQEFVETGLCYDTRNWNDEWDNLIKMASTDTPMARSGLQYNSLEEIHIFVLCNILRRPIIVISDKMLRSLESGSNFAPLKVGGIYLPLHWPAQECYRYPIVLGYDSHHFVPLVTLKDSGPEIRAVPLVNRDRGRFEDLKVHFLTDPENEMKEKLLKEYLMVIEIPVQGWDHGTTHLINAAKLDEANLPKEINLVDDYFELVQHEYKKWQENSEQGRREGHAQ
- stoichiometry N: 2

From article PMC3665706 (Immunity, 2013)
